Consider 4 molecules from US20090203538A1 (INSTITUTE FOR ANTIBODIES, published 2009).

Common to all, as to assay: antigen assigned by the filing's classifying and identification method; details for this clone not given
One assay has as its target T1, CD46 antigen (Homo sapiens (Human), UniProt P15529 35-392).
T1 construct: Native protein on cancer cell lines; also called MCP (Membrane Co-factor Protein); gp45-70
T1 sequence: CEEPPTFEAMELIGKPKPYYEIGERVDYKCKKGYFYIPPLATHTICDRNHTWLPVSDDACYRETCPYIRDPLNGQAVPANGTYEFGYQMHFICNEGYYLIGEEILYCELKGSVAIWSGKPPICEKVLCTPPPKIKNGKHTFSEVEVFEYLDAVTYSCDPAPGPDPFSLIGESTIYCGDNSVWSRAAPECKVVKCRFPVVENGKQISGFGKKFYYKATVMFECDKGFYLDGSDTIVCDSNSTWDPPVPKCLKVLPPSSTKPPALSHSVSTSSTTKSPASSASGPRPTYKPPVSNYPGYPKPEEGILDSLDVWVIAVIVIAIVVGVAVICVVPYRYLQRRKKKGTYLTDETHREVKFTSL

For the next assay, the target named is T2, EpCAM (Homo sapiens (Human), UniProt P16422 24-314).
T2 chain: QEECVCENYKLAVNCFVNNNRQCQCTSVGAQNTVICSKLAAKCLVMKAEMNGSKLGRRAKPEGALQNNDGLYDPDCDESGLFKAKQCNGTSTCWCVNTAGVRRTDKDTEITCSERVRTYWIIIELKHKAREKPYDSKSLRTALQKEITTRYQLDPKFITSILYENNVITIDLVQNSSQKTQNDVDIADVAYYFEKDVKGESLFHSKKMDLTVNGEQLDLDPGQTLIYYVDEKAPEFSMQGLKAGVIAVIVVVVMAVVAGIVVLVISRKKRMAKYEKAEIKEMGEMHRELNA

Assay [1] has as its target T3, BCAM (basal cell adhesion molecule) (Lutheran blood group) (Homo sapiens (Human), UniProt P50895 32-628, limits assumed).
T3 construct: also called CD239 antigen
T3 sequence: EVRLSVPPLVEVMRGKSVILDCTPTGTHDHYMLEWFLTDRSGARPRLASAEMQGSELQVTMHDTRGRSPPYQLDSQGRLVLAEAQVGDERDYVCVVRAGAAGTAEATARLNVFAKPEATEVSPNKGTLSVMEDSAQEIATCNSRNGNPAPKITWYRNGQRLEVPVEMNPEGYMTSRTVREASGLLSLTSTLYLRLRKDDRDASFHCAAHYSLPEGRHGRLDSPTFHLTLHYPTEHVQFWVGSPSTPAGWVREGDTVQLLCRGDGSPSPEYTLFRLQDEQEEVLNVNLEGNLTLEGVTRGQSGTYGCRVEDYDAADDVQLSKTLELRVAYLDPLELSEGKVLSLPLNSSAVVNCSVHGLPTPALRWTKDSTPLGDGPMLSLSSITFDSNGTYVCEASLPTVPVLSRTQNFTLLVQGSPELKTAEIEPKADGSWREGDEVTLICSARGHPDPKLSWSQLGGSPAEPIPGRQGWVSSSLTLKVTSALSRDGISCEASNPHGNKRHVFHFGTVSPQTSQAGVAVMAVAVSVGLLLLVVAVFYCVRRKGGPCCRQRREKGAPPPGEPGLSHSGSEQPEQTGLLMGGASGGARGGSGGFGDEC

In assay [2] the target is T4, IgSF4 (immunoglobulin superfamily member 4) (Homo sapiens, UniProt Q9BY67 45-442).
T4 construct: Native protein on cancer cell lines; also called BL2; ST17
T4 sequence: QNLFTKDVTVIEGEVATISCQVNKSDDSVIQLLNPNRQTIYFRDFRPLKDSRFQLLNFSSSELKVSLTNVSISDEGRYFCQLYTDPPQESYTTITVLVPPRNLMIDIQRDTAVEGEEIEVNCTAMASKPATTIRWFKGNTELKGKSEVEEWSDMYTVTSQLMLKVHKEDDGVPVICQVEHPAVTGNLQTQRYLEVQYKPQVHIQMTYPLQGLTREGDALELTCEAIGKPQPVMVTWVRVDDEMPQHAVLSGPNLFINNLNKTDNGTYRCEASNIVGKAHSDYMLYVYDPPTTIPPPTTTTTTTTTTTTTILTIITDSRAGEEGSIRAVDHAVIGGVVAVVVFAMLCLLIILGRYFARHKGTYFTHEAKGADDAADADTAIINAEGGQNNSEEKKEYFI

B1: 066-069 antibody (antibody, V domains shown)
VH: QVQLVQSEAEVKKPGESLKISCKGSGYSFTSYWIGWVRQMPGKGLEWMGIIYPGDSDTRYSPSFQGQVTISADKSISTAYLQWSSLKASDTAMYYCARTIGLGAFDIWGQGTTVTVSR
VL: SSELTQDPAVSVALGQTVRITCQGDSLRSYYASWYQQKPGQAPVLVIYGKNNRPSGIPDRFSGSSSGNTASLTITGAQAEDEADYYCNSRDSSGNHHYVFGTGTKVTVLG
notes: Clone of the scFv-CL-cp3 phage library
Regarding B1, the binding result in the assay with CD46 antigen was “binds”.

B2: 067-153 antibody (antibody, V domains shown)
VH: QVQLQESGGGLVQPGGSLRLSCTTSGFTFTSYAMSWVRQAPGKGLEWVSSISGSGGITYYADSVKGRFTISRDNSKNTLYLQMNSLRAEDTAVYYCAKDRVLVPASSSYFDYWGQGTLVTVSR
VL: SSELTQDPAVSVALGQTVRITCQGDSLRSYYASWYQQKPGQAPVLVIYGKNNRPSGIPDRFSGSSSGNTASLTITGAQAEDEADYYCNSRDSSGNHVVFGGGTKLTVLG
notes: as for B1
B2: the binding result in the assay with EpCAM is recorded as “binds”.

B3: 067-024 antibody (antibody, V domains shown)
VH: QVQLVQSGAEVKKPGASVKVSCKASGYTFTSYYMHWVRQAPGQGLEWMGIINPSGGSTSYAQKFQGRVTMTRDTSTSTVYMELSSLRSEDTAVYYCARAKRRGSAFDIWGQGTTVTVSR
VL: SSELTQDPAVSVALGQTVRITCQGDSLRSYYASWYQQKPGQAPVLVIYGKNNRPSGIPDRFSGSSSGNTASLTITGAQAEDEADYYCNSRDSSGNHVVFGGGTKLTVLG
notes: as for B1
B3: the binding result in assay [1] is “binds”.

B4: 076-048 antibody (antibody, V domains shown)
VH: QVQLVQSGAEVKKPGSSVKVSCRASGGTFSSYAISWVRQAPGQGLEWMGGIIPIFGTANYAQKFQGRVTITADKSTSTAYMELSSLRSEDTAVYYCAGDISRGSSWYGYYFDYWGQGTLVTVSR
VL: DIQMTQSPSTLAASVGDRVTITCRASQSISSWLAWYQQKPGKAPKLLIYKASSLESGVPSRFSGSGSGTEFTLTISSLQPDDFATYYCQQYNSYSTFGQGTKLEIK
notes: as for B1
For the molecule B4, the binding result in assay [2] was “binds”.
